From paper PMC4118443 (2014)

Target: T1, NS5A 347-361 (Hepatitis C virus, UniProt P26664)
T1 chain: PKSPPVPPPRKKRTV
Experiment: fluorescence titration

B1: Bin1 SH3 (protein)
chain: LPPGFMFKVQAQHDYTATDTDELQLKAGDVVLVIPFQNPEEQDEGWLMGVKESDWNQHKELEKCRGVFPENFTERVP
Kd: 200 nM
